Experimental data published in patent US20160185837A1, “GIP AND GLP-1 RECEPTOR DUAL-AGONISTS FOR THE TREATMENT OF DIABETES” (Medimmune Limited, priority 2013, published 2016).

T1: mouse GIP receptor (mouse) (UniProt Q0P543)
T1 sequence (looked up): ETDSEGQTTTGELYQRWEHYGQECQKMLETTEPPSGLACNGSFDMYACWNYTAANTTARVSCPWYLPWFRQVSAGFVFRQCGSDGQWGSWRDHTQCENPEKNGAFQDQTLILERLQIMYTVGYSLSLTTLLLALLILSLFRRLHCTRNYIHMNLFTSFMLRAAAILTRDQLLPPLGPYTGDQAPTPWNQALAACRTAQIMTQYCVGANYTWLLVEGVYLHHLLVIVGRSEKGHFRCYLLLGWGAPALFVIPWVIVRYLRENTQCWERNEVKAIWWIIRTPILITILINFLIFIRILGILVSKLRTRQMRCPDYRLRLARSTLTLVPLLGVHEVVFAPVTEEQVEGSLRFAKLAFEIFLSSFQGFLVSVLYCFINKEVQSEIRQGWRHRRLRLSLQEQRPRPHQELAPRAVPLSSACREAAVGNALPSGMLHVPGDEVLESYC

T2: rat GIP receptor (rat) (UniProt P43219)
T2 sequence (looked up): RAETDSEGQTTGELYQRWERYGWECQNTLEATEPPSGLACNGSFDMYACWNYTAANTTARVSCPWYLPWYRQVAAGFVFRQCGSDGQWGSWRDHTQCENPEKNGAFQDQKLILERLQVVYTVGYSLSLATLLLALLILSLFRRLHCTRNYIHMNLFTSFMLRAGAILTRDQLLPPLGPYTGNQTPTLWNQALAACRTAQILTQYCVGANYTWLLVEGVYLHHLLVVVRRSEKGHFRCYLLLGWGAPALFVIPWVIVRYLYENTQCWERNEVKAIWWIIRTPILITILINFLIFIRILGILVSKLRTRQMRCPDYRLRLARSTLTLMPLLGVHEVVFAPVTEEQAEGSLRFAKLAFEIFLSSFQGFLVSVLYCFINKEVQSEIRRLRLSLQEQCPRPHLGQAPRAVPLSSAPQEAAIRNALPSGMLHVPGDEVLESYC

T3: human GIP receptor (human) (UniProt P48546)
T3 sequence (looked up): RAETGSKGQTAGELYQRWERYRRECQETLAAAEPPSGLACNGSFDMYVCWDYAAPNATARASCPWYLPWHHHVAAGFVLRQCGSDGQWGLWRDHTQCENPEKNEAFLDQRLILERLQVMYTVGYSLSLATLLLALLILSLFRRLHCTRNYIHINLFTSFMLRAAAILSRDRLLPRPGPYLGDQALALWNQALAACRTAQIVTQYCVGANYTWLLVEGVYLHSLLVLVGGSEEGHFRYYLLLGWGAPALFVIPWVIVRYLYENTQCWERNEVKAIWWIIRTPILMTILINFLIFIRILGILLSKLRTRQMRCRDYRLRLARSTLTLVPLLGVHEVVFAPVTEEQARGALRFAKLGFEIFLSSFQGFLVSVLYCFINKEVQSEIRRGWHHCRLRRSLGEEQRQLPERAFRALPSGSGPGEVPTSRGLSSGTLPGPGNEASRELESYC


Assays:
Experiment in all cases: cell-based or functional assay
[1] = biological target: T1, mouse GIP receptor (mouse)
[2] = biological target: human glucagon receptor (human) (UniProt P47871)
rat GIP receptor (rat) = biological target: T2, rat GIP receptor (rat)
[3] = biological target: human GLP-1 receptor (human) (UniProt P43220)
rat GLP-1 receptor (rat) = rat GLP-1 receptor (rat) (UniProt P32301)
[4] = biological target: T3, human GIP receptor (human)
[5] = biological target: mouse GLP-1 receptor (mouse) (UniProt O35659)
mouse GLP-1 receptor (mouse), sequence (O35659 22-463): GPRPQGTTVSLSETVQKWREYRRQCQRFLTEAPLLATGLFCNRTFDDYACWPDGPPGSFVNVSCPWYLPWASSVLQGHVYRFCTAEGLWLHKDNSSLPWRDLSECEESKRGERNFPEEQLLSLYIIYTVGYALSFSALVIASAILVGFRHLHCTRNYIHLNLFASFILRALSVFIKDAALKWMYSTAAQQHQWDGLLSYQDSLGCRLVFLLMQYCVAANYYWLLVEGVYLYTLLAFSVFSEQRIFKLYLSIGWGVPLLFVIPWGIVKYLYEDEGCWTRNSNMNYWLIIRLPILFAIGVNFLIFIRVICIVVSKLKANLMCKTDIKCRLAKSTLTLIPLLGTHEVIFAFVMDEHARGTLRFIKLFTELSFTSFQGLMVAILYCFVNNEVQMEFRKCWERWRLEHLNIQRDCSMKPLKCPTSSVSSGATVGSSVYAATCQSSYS

human GLP-1 receptor (human), sequence (P43220 24-463): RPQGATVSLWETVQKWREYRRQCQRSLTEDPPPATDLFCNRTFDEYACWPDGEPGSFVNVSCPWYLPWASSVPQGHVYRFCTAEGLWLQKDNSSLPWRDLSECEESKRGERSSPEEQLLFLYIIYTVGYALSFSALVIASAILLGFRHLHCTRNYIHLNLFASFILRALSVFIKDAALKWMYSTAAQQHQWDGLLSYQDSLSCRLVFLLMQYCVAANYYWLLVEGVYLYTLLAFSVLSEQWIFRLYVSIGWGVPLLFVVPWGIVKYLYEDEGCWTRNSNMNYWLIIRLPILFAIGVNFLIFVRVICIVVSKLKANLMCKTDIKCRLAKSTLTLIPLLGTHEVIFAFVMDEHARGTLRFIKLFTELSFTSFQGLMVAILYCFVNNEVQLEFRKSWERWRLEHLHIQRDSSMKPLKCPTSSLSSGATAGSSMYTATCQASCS
rat GLP-1 receptor (rat), sequence (P32301 22-463): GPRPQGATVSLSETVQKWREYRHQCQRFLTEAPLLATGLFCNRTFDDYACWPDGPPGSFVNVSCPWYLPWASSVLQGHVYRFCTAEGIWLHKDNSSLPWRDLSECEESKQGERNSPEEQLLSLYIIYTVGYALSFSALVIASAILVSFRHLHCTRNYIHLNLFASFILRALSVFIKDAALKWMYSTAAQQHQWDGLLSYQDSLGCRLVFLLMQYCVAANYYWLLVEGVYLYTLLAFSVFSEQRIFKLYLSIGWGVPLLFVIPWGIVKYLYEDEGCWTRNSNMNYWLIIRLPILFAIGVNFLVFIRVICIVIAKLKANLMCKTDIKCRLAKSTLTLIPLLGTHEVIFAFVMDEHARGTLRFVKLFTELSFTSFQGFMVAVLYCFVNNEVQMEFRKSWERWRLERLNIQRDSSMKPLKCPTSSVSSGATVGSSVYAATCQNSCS
human glucagon receptor (human), sequence (P47871 26-477): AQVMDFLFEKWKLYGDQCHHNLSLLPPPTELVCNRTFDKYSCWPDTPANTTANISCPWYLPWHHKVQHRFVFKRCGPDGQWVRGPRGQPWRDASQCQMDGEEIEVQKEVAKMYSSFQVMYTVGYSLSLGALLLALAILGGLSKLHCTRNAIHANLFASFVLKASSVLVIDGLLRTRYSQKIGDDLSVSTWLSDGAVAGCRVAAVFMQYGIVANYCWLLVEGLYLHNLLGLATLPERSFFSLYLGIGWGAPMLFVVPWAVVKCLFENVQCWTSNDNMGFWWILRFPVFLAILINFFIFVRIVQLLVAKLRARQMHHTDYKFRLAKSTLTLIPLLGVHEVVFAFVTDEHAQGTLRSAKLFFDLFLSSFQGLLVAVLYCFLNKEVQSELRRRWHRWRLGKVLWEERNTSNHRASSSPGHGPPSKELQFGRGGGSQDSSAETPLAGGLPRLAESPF

cAMP EC50 [1] [nM] | cAMP EC50 [2] [nM] | cAMP EC50 (rat GIP receptor (rat)) [nM] | cAMP EC50 [3] [nM] | cAMP EC50 (rat GLP-1 receptor (rat)) [nM] | cAMP EC50 [4] [nM] | cAMP EC50 [5] [nM] | cAMP EC50, Batch 2 [1] [nM] | cAMP EC50, Batch 2 [2] [nM] | cAMP EC50, Batch 2 (rat GIP receptor (rat)) [nM] | cAMP EC50, Batch 2 [3] [nM] | cAMP EC50, Batch 2 (rat GLP-1 receptor (rat)) [nM] | cAMP EC50, Batch 2 [5] [nM] | Binder
0.02 | 280 | 0.0067 | > 5480 | > 2740 | 0.0058 | > 2740 |  |  |  |  |  |  | IP335 (Fc fusion) YSEGTFISDYSIAMDKIHQQDFVNWLLAQKGGGGGSGGGGSGGGGSGGGGSA
0.017 | 24 | 0.0079 | 72 | 22 | 0.0096 | 330 |  |  |  |  |  |  | IP321 (Fc fusion) YSEGTFISDYSIAMDKIHQQDFVNWLLAGGAAAGGSGSTASSGSGSATGGGGAATHTCPPC
43 | > 3560 | 5.1 | 75 | 23 | 4.7 | 670 |  |  |  |  |  |  | IP342 (Fc fusion) YSEGTFTSDYSAAAEAAAAAAFAAWLAAAAGGGGGSGGGGSGGGGSGGGGSACPPC
3.2 | 1100 | 1.7 | 230 | 47 | 0.26 | > 1130 |  |  |  |  |  |  | IP305 (Fc fusion) YSEGTFISDYSIALAAAAVRDFVNWLLAGGGGGGGSGGGGSGGGGSGGGGSATHTCPPC
15 | 740 | 0.88 | > 906 | 450 | 0.23 | > 906 |  |  |  |  |  |  | IP314 (Fc fusion) YSEGTFISDYSKLLAAAAVRDFVNWLLAGGGGGGGSGGGGSGGGGSGGGGSATHTCPPC
0.083 | 1200 | 0.055 | 26 | 7 | 0.018 | 93 |  |  |  |  |  |  | IP302 (Fc fusion) YSEGTFISDYSIALAAAAQQDFVNWLLAGGGGGGGSGGGGSGGGGSGGGGSATHTCPPC
0.95 | > 2420 | 0.43 | 670 | 61 | 0.074 | 1500 |  |  |  |  |  |  | IP311 (Fc fusion) YSEGTFISDYSIALAAAAIDDFVNWLLAGGGGGGGSGGGGSGGGGSGGGGSATHTCPPC
0.17 | 1500 | 0.09 | 1300 | 700 | 0.025 | > 1520 |  |  |  |  |  |  | IP308 (Fc fusion) YSEGTFISDYSIALAAAAAKDFVNWLLAGGGGGGGSGGGGSGGGGSGGGGSATHTCPPC
0.013 | 200 | 0.0052 | > 2300 | > 1150 | 0.0062 | > 1150 |  |  |  |  |  |  | IP337 (Fc fusion) YSEGTFISDYSIAMDKIHQQDFVNWLLAQKGGGGGSGGGGSGGGGSGGGGSGGGGSGGGGSGGGGSA
3.2 | > 6790 | 0.035 | 0.72 | 0.9 | 0.0054 | 9.2 |  |  |  |  |  |  | IP373 (Fc fusion) YSEGTHTSDFSKLLERQAIDEFIAWLLKGGAAAGGSGSTASSGSGSATGGGGAATHTCPPC
10 | > 17600 | 0.06 | 0.54 | 0.23 | 0.0095 | 10 |  |  |  |  |  |  | IP394 (Fc fusion) YSEGMHTSDLSKLLERQAIDEFIAWLLKGGAAAGGSGSTASSGSGSATGGGGAATHTCPPC
0.65 | > 11700 | 0.07 | 4 | 3.9 | 0.078 | 49 |  |  |  |  |  |  | IP375 (Fc fusion) YSEGTHTSLFSKLLERQAIDEFIAWLLKGGAAAGGSGSTASSGSGSATGGGGAATHTCPPC
0.0098 | 130 | 0.0063 | 110 | 210 | 0.0036 | 820 |  |  |  |  |  |  | IP351 (Fc fusion) YSEGTFISDYSIAMDKIHQQDFVNWLLAQKPSSGAPPPSGGGGSGGGGSGGGGSGGGGSACPPC
18 | > 1560 | 1.1 | 0.47 | 0.16 | 0.012 | 30 |  |  |  |  |  |  | IP385 (Fc fusion) YSEGTFTSDYSIYLDRQAIDEFIAWLLKGGGGGGGSGGGGSGGGGSGGGGSACPPC
0.28 | 330 | 0.19 | 0.11 | 0.057 | 0.0093 | 1.2 | 0.78 | 250 | 0.014 | 0.11 | 0.01 | 2.5 | IP396 (Fc fusion) YSEGTFTSDYSKLLERQAIDEFIAWLLKGGGGGGGSGGGGSGGGGSGGGGSACPPC
0.011 | 200 | 0.0062 | > 8550 | > 8550 | 0.0053 | > 8550 |  |  |  |  |  |  | IP344 (Fc fusion) YSEGTFISDYSIAMDKIHQQDFVNWLLAQKGGGGGSGGGGSGGGGSGGGGSGGGGSA
0.012 | 200 | 0.0047 | > 4510 | > 2260 | 0.005 | > 2260 |  |  |  |  |  |  | IP336 (Fc fusion) YSEGTFISDYSIAMDKIHQQDFVNWLLAQKGGGGGSGGGGSGGGGSGGGGSGGGGSGGGGSA
0.21 | > 1250 | 0.044 | 98 | 50 | 0.026 | 750 |  |  |  |  |  |  | IP332 (Fc fusion) YSEGTFTSDYSIALAAAAQQDFVNWLLAGGGGGGGSGGGGSGGGGSGGGGSGGGGSGGGGSA
0.019 | > 1080 | 0.015 | > 1080 | 430 | 0.0086 | > 1080 |  |  |  |  |  |  | IP333 (Fc fusion) YSEGTFISDYSIALAAAAQQDFVNWLLKGGGGGGGSGGGGSGGGGSGGGGSGGGGSGGGGSA
0.3 | > 455 | 0.056 | 130 | 120 | 0.029 | > 455 |  |  |  |  |  |  | IP334 (Fc fusion) YSEGTFTSDYSIALAAAAQQDFVNWLLKGGGGGGGSGGGGSGGGGSGGGGSGGGGSGGGGSA
0.012 | 190 | 0.005 | > 1890 | > 945 | 0.0052 | > 945 |  |  |  |  |  |  | IP338 (Fc fusion) YSEGTFISDYSIAMDKIHQQDFVNWLLAQKGGGGGSGGGGSGGGGSGGGGSGGGGSGGGGSGGGGSGGGGSAN
